Target: the molecule itself
Experiment: cryo-EM structure

B1: human GPR155 (residues 1-870), construct without the eGFP tag (receptor, UniProt Q7Z3F1 1-870, looked up)
chain: MNSNLPAENLTIAVNMTKTLPTAVTHGFNSTNDPPSMSITRLFPALLECFGIVLCGYIAGRANVITSTQAKGLGNFVSRFALPALLFKNMVVLNFSNVDWSFLYSILIAKASVFFIVCVLTLLVASPDSRFSKAGLFPIFATQSNDFALGYPIVEALYQTTYPEYLQYIYLVAPISLMMLNPIGFIFCEIQKWKDTQNASQNKIKIVGLGLLRVLQNPIVFMVFIGIAFNFILDRKVPVYVENFLDGLGNSFSGSALFYLGLTMVGKIKRLKKSAFVVLILLITAKLLVLPLLCREMVELLDKGDSVVNHTSLSNYAFLYGVFPVAPGVAIFATQFNMEVEIITSGMVISTFVSAPIMYVSAWLLTFPTMDPKPLAYAIQNVSFDISIVSLISLIWSLAILLLSKKYKQLPHMLTTNLLIAQSIVCAGMMIWNFVKEKNFVGQILVFVLLYSSLYSTYLWTGLLAISLFLLKKRERVQIPVGIIIISGWGIPALLVGVLLITGKHNGDSIDSAFFYGKEQMITTAVTLFCSILIAGISLMCMNQTAQAGSYEGFDQSQSHKVVEPGNTAFEESPAPVNEPELFTSSIPETSCCSCSMGNGELHCPSIEPIANTSTSEPVIPSFEKNNHCVSRCNSQSCILAQEEEQYLQSGDQQLTRHVLLCLLLIIGLFANLSSCLWWLFNQEPGRLYVELQFFCAVFNFGQGFISFGIFGLDKHLIILPFKRRLEFLWNNKDTAENRDSPVSEEIKMTCQQFIHYHRDLCIRNIVKERRCGAKTSAGTFCGCDLVSWLIEVGLASDRGEAVIYGDRLVQGGVIQHITNEYEFRDEYLFYRFLQKSPEQSPPAINANTLQQERYKEIEHSSPPSHSPKT
  stoichiometry N: 2

Source: article doi:10.1101/2024.09.24.614577 (bioRxiv, 2024)
